From patent publication US20190382481A1 (Janssen / Centocor, published 2019)

B1: C33B909 (antibody, V domains shown)
VH: EVQLVESGGGLVQPGRSLRLSCVASGFTFDDYAIHWVRQAPGKGLEWVSGLSWNGGNIGYADSVKGRFTISRDNAKNSLYLQMNSLKTEDTAFYYCTKDTPYGDYFDYWGQGTLVTVSS
VL: DIQMTQSPSSVWASVGDRVTITCRASQGISSWLAWYQQQPGKAPNLLIYRSSSLQSGVPSRFSGSGSGTDFTLTISSLQPEDFATYYCQQDNSFPYTFGQGTKLEIKR
notes: OMNIMouse mAb; HC C33H249, LC C33L115 (same IDs as C33B901); the campaign was cloned into both IgG1 and IgG4 PAA
B2: C33B910 (antibody, V domains shown)
VH: EVQLVESGGGLVQPGRSLRLSCAGSGFTFDDYAIHWVRQAPGKGLEWVSGLSWNGGNIGYADSVKGRFTISRDNAKNSLYLQLNSLKTEDTAFYYCAKDSPYGDYFDYWGQGTLVTVSS
VL: DIQMTQSPSSEWASVGDRVTITCRASQGISSWLAWYQQKPGKAPKLLIYGASSWQSGVPSRFSGSGSGTDFTLTISSLQPEDFATYYCQQDNSFPYTFGQGTKLEIKR
notes: OMNIMouse mAb; HC C33H250, LC C33L116 (same IDs as C33B902)
B3: C33B913 (antibody, V domains shown)
VH: EVQLLESGGGLVQPGGSLKLSCTASGFTFRSYAMSWVRQAPGKGLEWVSAINGYGDGRYYADSVKGRFTISRDNSKNTLYLQMNSLRAEDTAVYSCAKDQGFGELFFDYWGQGTLVTVSS
VL: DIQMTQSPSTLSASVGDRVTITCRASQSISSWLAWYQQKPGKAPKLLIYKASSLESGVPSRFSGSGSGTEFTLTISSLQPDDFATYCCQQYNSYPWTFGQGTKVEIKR
notes: OMNIMouse mAb; HC C33H253, LC C33L119 (same IDs as C33B905); also called C33F551
B4: C33B914 (antibody, V domains shown)
VH: QVQLVESGGGVVQPGRSLRLSCAASGFTFSYYGMHWVRQAPDKGLEWVAVIWFDGNNKYYADSVKGRFTISRDNSKNTLYLQMNSLRAEDTAVYYCARDRELLFDYWGQGTLVTVSS
VL: SYELTQPPSVSVSPGQTASITCSGDELGDMYACWYQQKPGQSPLVVIYQDSKRPSGIPERFSGSNSGNTATLTISGTQAMDEAAYYCQTWDTRIAVFGGGTNLTVLG
notes: OMNIMouse mAb; HC C33H254, LC C33L120 (same IDs as C33B906); also called C33F552
B5: C33B915 (antibody, V domains shown)
VH: EVQLVESGGGLVQPGRSLRLSCAASGFTFDDYAMHWVRQVPGEGLEWVSGISWNGGDMVYADSVKGRFTISRDNAKNSLYLQMNSLRPEDTALYYCVKDMPYFDFLTGSDYYYYGMDVWGQGTTVTVSS
VL: SYELTQPPSVSVSPGQTASITCSGDNLGNEHVCWYHQKPGQSPVLVIYQNNKRPSGIPERFSGSNSGNTATLSISGTQATDEADYYCQAWDSTTAVFGGGTKLTVLG
notes: OMNIMouse mAb; HC C33H255, LC C33L121 (same IDs as C33B907); also called C33F553

Key:
[1] = target: T1, Cyno CD33 full length (cynomolgus monkey); assay: flow cytometry on HEK293F cells expressing cyno CD33
T1 construct: Stably expressed on HEK293F cells by lentiviral transduction; also called Cyno CD33 (on HEK293F cells)
T1 sequence (chain, as listed by the source limits assumed): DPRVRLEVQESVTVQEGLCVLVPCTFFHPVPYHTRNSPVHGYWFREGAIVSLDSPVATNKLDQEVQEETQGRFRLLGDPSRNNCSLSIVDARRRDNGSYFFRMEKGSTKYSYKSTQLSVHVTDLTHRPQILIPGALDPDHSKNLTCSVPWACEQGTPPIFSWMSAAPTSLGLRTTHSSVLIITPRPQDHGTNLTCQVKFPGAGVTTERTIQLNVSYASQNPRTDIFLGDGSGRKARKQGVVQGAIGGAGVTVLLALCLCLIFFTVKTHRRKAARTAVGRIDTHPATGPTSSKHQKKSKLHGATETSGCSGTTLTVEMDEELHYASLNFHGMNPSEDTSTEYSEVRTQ
Experimental: (§1) The purified antibodies were assessed for binding to stably transfected HEK293F cells expressing human CD33 or cyno CD33 (generation described above) along with the parental HEK293F as negative control. Cells were harvested from tissue culture flasks using non-enzymatic dissociation buffer (Thermo Scientific). The flasks were rinsed twice with PBS and dissociation buffer was added to the flask, and the flask was incubated for 10 minutes at 37° C. until the cells became non-adherent. The cells were centrifuged at 300 g for 5 minutes and resuspended at 1.0×10⁶ cells/ml in staining buffer (Becton Dickinson; Franklin Lakes, N.J.). 50,000 cells/well of each cell type was plated in 50 μl of staining buffer in round bottom plates (Becton Dickinson). 50 μl of 2× concentration test mAb or isotype control was added at 3 dilutions and zero (120 nM, 12 nM, and 1.2 nM and 0 nM), and the resultant solution was incubated 30 min at 4° C. 100 μl staining buffer was added to all wells of each plate, the plates were spun at 300 g for 5 min, the buffer was removed, 200 μl staining buffer was added to all wells of each plate, the plates were spun at 300 g for 5 min, and the buffer was removed. 50 μl of 2 μg/ml of Goat-anti-human Fc AF647 secondary antibody (Jackson Immunoresearch; West Grove, Pa.) was added to all wells of the plates, and the plates were incubated for 30 min at 4° C. 100 μl staining buffer was added to all wells of the plates, the plates were spun at 300 g for 5 min, and the buffer was removed. 200 μl running buffer (running buffer is Staining buffer, 1 mM EDTA, 0.1% Pluronic Acid) was added to all wells of the plates, the plates were spun at 300 g for 5 min, and the buffer was removed. 30 ul running buffer containing Sytox Green live/dead dye (ThermoFisher) was added to all wells with cells and the plates were read on an iQue IntelliCyt flow cytometer. Cells were gated on forward vs. side scatter to eliminate debris, then on singlets and then on live cells which excluded the Sytox stain. Antibody binding was assessed by the mean fluorescence intensity in the AF647 channel. […]

[2] = target: T2, Human CD33 full length (human, UniProt P20138 18-364); assay: flow cytometry on HEK293F cells expressing human CD33
T2 construct: Stably expressed on HEK293F cells by lentiviral transduction; also called Human CD33 (on HEK293F cells)
T2 sequence (P20138 18-364 limits assumed): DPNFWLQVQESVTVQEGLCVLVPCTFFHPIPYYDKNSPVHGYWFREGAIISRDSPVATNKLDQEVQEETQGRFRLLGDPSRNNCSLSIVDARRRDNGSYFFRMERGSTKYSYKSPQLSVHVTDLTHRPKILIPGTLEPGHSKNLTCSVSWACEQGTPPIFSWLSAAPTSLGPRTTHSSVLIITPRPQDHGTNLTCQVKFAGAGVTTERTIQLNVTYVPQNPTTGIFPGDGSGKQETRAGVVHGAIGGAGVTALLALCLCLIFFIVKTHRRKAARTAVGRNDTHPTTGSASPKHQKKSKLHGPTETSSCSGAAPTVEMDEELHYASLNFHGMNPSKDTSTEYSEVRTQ
Experimental: as §1

mean fluorescence intensity at 0.6 nM mAb [1] [MFI]	mean fluorescence intensity at 6 nM mAb [1] [MFI]	mean fluorescence intensity at 60 nM mAb [1] [MFI]	mean fluorescence intensity at 0.6 nM mAb [2] [MFI]	mean fluorescence intensity at 6 nM mAb [2] [MFI]	mean fluorescence intensity at 60 nM mAb [2] [MFI]	Binder
116	135	180	154	170	176	B1
117	135	202	151	183	214	B2
35200	36900	40700	205000	409000	519000	B3
22100	33400	45000	153000	315000	304000	B4
36200	35700	37500	138000	363000	390000	B5
